# Assay results as given in article PMC10397247.
# T1: 4H3705-AA
# T1 chain: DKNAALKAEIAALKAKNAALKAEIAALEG
# T2: 4H895-AA
# T2 chain: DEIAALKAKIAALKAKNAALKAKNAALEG
# T3: 4H140-AA
# T3 chain: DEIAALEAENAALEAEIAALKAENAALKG
# T4: 4H1136-AA
# T4 chain: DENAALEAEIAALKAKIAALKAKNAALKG
# T5: 4H3782-AA
# T5 chain: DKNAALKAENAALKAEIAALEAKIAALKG
# T6: 4H3651-AA
# T6 chain: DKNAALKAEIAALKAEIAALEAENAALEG
# T7: 4H1257-AA
# T7 chain: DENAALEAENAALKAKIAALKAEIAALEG
# T8: 4H535-AA
# T8 chain: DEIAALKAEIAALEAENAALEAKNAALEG
# T9: 4H_APH
# T9 chain: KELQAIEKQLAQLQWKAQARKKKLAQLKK
# T10: 4H2721-AA
# T10 chain: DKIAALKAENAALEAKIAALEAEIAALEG
# T11: 4H355-AA
# T11 chain: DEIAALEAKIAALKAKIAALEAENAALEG
# T12: 4H2600-AA
# T12 chain: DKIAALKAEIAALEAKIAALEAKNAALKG
# T13: 4H58-AA
# T13 chain: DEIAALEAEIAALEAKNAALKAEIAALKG
# T14: 4H2898-AA
# T14 chain: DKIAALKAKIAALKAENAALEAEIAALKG
# T15: 4H1110-AA
# T15 chain: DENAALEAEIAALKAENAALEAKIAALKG
# T16: 4H3020-AA
# T16 chain: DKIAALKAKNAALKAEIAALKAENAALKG
# T17: 4H3365-AA
# T17 chain: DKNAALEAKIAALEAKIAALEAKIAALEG
# T18: 4H1802-AA
# T18 chain: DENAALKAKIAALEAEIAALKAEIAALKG
# T19: 4H465-AA
# T19 chain: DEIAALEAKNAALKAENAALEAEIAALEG
# T20: 4H486-AA
# T20 chain: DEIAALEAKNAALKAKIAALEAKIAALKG
# T21: 4H2750-AA
# T21 chain: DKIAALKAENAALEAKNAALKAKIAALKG
# T22: 4H_BCR
# T22 chain: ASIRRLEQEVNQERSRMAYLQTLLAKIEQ
# T23: Core_NNNN-es_KEKE
# T23 chain: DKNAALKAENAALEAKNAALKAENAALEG
# T24: 4H3907-bA
# T24 chain: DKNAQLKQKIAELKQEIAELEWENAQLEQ
# T25: 4H3961-bA
# T25 chain: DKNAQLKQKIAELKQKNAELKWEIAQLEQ
# T26: 4H344-bA
# T26 chain: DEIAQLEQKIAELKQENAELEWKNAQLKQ
# T27: 4H2568-bA
# T27 chain: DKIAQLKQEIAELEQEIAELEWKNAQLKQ
# T28: 4H1072-bA
# T28 chain: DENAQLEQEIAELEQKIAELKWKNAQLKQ
# T29: 4H1046-bA
# T29 chain: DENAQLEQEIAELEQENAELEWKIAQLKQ
# T30: 4H470-bA
# T30 chain: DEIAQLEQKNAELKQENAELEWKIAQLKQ
# T31: 4H2745-bA
# T31 chain: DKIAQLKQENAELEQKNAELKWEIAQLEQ
# T32: 4H363-bA
# T32 chain: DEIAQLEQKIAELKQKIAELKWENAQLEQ
# T33: 4H2619-bA
# T33 chain: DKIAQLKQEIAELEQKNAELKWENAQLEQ
# T34: Core_NNIN-es_KKEE
# T34 chain: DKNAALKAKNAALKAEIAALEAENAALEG
# Columns and labels:
# 4H3705-AA = target: T1, 4H3705-AA; assay: two-hybrid library CCmax; settings: mean of both orientations;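 note: natural log of median RNA to DNA barcode read ratio; higher means stronger binding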
# 4H895-AA = target: T2, 4H895-AA; assay: two-hybrid library CCmax; settings: mean of both orientations;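 note: natural log of median RNA to DNA barcode read ratio; higher means stronger binding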
# 4H140-AA = target: T3, 4H140-AA; assay: two-hybrid library CCmax; settings: mean of both orientations;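 note: natural log of median RNA to DNA barcode read ratio; higher means stronger binding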
# 4H1136-AA = target: T4, 4H1136-AA; assay: two-hybrid library CCmax; settings: mean of both orientations;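 note: natural log of median RNA to DNA barcode read ratio; higher means stronger binding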
# 4H3782-AA = target: T5, 4H3782-AA; assay: two-hybrid library CCmax; settings: mean of both orientations;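 note: natural log of median RNA to DNA barcode read ratio; higher means stronger binding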
# 4H3651-AA = target: T6, 4H3651-AA; assay: two-hybrid library CCmax; settings: mean of both orientations;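 note: natural log of median RNA to DNA barcode read ratio; higher means stronger binding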
# 4H1257-AA = target: T7, 4H1257-AA; assay: two-hybrid library CCmax; settings: mean of both orientations
# 4H535-AA = target: T8, 4H535-AA; assay: two-hybrid library CCmax; settings: mean of both orientations
# 4H_APH = target: T9, 4H_APH; assay: two-hybrid library CCmax; settings: mean of both orientations
# GCN2_T = assay: two-hybrid library CCmax
# 4H2721-AA = target: T10, 4H2721-AA; assay: two-hybrid library CCmax; settings: mean of both orientations
# 4H355-AA = target: T11, 4H355-AA; assay: two-hybrid library CCmax; settings: mean of both orientations
# 4H2600-AA = target: T12, 4H2600-AA; assay: two-hybrid library CCmax; settings: mean of both orientations
# 4H58-AA = target: T13, 4H58-AA; assay: two-hybrid library CCmax; settings: mean of both orientations
# 4H2898-AA = target: T14, 4H2898-AA; assay: two-hybrid library CCmax; settings: mean of both orientations
# 4H1110-AA = target: T15, 4H1110-AA; assay: two-hybrid library CCmax
# 4H3020-AA = target: T16, 4H3020-AA; assay: two-hybrid library CCmax; settings: mean of both orientations
# 4H_GCN4 = assay: two-hybrid library CCmax
# 4H3365-AA = target: T17, 4H3365-AA; assay: two-hybrid library CCmax; settings: mean of both orientations
# 4H1802-AA = target: T18, 4H1802-AA; assay: two-hybrid library CCmax; settings: mean of both orientations
# 4H465-AA = target: T19, 4H465-AA; assay: two-hybrid library CCmax; settings: mean of both orientations
# 4H486-AA = target: T20, 4H486-AA; assay: two-hybrid library CCmax; settings: mean of both orientations
# 4H2750-AA = target: T21, 4H2750-AA; assay: two-hybrid library CCmax; settings: mean of both orientations
# 4H_BCR = target: T22, 4H_BCR; assay: two-hybrid library CCmax; settings: mean of both orientations
# Core_NNNN-es_KEKE = target: T23, Core_NNNN-es_KEKE; assay: two-hybrid library CCmax; settings: mean of both orientations
# 4H3907-bA = target: T24, 4H3907-bA; assay: two-hybrid library CCNG1
# 4H3961-bA = target: T25, 4H3961-bA; assay: two-hybrid library CCNG1; settings: mean of both orientations
# 4H344-bA = target: T26, 4H344-bA; assay: two-hybrid library CCNG1
# 4H2568-bA = target: T27, 4H2568-bA; assay: two-hybrid library CCNG1
# 4H1072-bA = target: T28, 4H1072-bA; assay: two-hybrid library CCNG1
# 4H1046-bA = target: T29, 4H1046-bA; assay: two-hybrid library CCNG1; settings: mean of both orientations
# 4H470-bA = target: T30, 4H470-bA; assay: two-hybrid library CCNG1
# 4H2745-bA = target: T31, 4H2745-bA; assay: two-hybrid library CCNG1
# 4H363-bA = target: T32, 4H363-bA; assay: two-hybrid library CCNG1
# 4H2619-bA = target: T33, 4H2619-bA; assay: two-hybrid library CCNG1
# Core_NNIN-es_KKEE = target: T34, Core_NNIN-es_KKEE; assay: two-hybrid library CCmax; settings: mean of both orientations
# Sequence of 4H_GCN4 (chain, as listed by the source): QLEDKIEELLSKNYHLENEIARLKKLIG
binder,measurement,setting,value
DENAALEAEIAALKAENAALEAKIAALKG [4H1110-AA],interaction score,4H3705-AA,2.63
same,interaction score,4H895-AA,0.133
same,interaction score,4H140-AA,-1.14
same,interaction score,4H1136-AA,-1.36
same,interaction score,4H3782-AA,-0.707
same,interaction score,4H3651-AA,-1.2
same,interaction score,4H1257-AA,-0.798
same,interaction score,4H535-AA,-1.39
same,interaction score,4H_APH,-1.53
same,interaction score,GCN2_T,-0.988
same,interaction score,4H2721-AA,-0.718
same,interaction score,4H355-AA,-0.0666
same,interaction score,4H2600-AA,-1.01
same,interaction score,4H58-AA,1.28
same,interaction score,4H2898-AA,1.96
same,interaction score,4H1110-AA,0.405
same,interaction score,4H3020-AA,1.51
same,interaction score,4H_GCN4,-0.932
same,interaction score,4H3365-AA,-1.2
same,interaction score,4H1802-AA,-1.32
same,interaction score,4H465-AA,-1.11
same,interaction score,4H486-AA,1.93
same,interaction score,4H2750-AA,-0.176
same,interaction score,4H_BCR,0.0686
DENAALEAKNAALKAENAALEAKNAALKG [Core_NNNN-es_EKEK],interaction score,Core_NNNN-es_KEKE,-0.668
DENAQLEQEIAELEQENAELEWKIAQLKQ [4H1046-bA],interaction score,4H3907-bA,-0.392
same,interaction score,4H3961-bA,1.98
same,interaction score,4H344-bA,-0.743
same,interaction score,4H2568-bA,-1.17
same,interaction score,4H1072-bA,-0.435
same,interaction score,4H1046-bA,-0.316
same,interaction score,4H470-bA,0.412
same,interaction score,4H2745-bA,0.103
same,interaction score,4H363-bA,0.269
same,interaction score,4H2619-bA,-0.535
DENAALEAENAALEAKIAALKAKNAALKG [Core_NNIN-es_EEKK],interaction score,Core_NNIN-es_KKEE,1.83
